Source: article PMC3912051

Tests used:
[1] = biological target: TRIM28 (endogenous human TRIM28 protein) (human (endogenous in HeLa)) (UniProt Q13263)
[2] = biological target: ZNF10 KRAB-AB KRAB-AB (Homo sapiens) (UniProt P21506); settings: cited from earlier work
Sequence of ZNF10 KRAB-AB KRAB-AB (Homo sapiens) (P21506 14-85): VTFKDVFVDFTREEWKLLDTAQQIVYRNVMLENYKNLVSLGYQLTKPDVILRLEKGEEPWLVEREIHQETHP

Sequence of TRIM28 (Q13263 2-835): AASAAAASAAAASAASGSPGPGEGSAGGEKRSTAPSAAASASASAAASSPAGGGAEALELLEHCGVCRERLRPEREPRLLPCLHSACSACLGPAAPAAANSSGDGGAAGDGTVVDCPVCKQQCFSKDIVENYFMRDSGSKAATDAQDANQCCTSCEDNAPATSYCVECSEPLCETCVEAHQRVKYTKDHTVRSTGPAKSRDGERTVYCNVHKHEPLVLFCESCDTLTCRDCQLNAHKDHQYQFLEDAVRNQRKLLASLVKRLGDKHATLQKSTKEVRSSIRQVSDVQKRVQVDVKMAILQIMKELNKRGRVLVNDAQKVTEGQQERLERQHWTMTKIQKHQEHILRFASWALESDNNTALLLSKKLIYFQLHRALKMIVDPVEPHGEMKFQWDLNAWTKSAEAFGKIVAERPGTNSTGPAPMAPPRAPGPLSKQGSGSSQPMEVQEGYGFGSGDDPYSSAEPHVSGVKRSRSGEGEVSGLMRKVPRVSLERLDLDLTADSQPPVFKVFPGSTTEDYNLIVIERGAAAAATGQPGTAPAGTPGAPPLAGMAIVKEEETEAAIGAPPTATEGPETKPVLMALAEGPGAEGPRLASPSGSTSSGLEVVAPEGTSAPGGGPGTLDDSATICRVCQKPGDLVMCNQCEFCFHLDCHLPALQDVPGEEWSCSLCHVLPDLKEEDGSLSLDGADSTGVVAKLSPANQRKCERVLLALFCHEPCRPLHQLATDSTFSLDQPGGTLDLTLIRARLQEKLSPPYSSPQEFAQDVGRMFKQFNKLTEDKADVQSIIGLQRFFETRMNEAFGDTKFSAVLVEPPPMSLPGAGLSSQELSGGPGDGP
Sequence of TRIM28 (endogenous human TRIM28 protein) (human (endogenous in HeLa)) (Q13263 whole entry): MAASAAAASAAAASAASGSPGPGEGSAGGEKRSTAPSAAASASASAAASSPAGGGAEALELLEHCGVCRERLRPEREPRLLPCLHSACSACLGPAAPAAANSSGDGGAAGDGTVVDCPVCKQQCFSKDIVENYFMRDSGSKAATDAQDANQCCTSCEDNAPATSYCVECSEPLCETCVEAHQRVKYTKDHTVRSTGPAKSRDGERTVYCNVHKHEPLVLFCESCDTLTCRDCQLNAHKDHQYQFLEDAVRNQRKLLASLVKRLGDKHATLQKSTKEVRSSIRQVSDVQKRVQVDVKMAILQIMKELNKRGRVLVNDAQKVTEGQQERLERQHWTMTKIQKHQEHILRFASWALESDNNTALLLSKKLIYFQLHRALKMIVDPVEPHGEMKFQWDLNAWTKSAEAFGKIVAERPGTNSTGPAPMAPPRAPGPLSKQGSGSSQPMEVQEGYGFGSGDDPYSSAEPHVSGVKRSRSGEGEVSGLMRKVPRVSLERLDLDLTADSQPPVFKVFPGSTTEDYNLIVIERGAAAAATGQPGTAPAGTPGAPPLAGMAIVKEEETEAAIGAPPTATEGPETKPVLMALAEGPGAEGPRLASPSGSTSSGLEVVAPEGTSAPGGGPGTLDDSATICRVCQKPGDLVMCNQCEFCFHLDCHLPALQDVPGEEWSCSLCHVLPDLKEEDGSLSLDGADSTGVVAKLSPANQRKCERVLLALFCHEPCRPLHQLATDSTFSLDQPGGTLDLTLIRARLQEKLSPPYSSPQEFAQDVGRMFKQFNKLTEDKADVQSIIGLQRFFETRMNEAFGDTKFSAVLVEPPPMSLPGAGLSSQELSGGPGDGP

Substance | fold repression of a Gal4-site luciferase reporter by Gal4-XFIN-KRAB-AB in EPC fish cells with co-transfected human TRIM28 (negligible without it) [1] [fold] | Kd [2] [nM]
GST-XFIN-KRAB-AB (corrected KRAB-AB domain of Xenopus laevis XFIN fused to glutathione S-transferase) (domain or fragment) | 2 | –
TRIM28 (from UniProt Q13263) | – | 142
